In article PMC12813979, “A Site-Specific Self-Association of a Protein Hub Drives Its Phase Separation” (ACS Chemical Biology, 2025):
* marks the point of attachment. Biotin = O=C1N[C@H]2[C@H](CS[C@H]2CCCCC(=O)*)N1

What was measured:
[1] = molecular target: N-terminus truncated WDR5, WDR5 23-334 (human, UniProt P61964 23-334); experiment: BLI; biotinylated MLL3Win peptide immobilised on streptavidin sensors; WDR5 (0.11-9.0 µM) or ΔN-WDR5 (0.10-9.0 µM) in the wells; 150 mM KCl, 20 mM Tris-HCl, 1 mM TCEP, 1 mg/mL BSA, pH 7.5; global fit of kon and koff, KD derived indirectly from them; triplicates; conditions: both partners purified
[2] = molecular target: WD40 repeat protein 5 (WDR5), full-length (human, UniProt P61964 1-334); experiment: as above; conditions: both partners purified

B1: Win-like motif-based peptide ligand of mixed lineage leukemia 3 (MLL3Win) (peptide)
chain: Biotin-VNPTGCARSEPKMS-NH2
SMILES: CSCC[C@H](NC(=O)[C@H](CCCCN)NC(=O)[C@@H]1CCCN1C(=O)[C@H](CCC(=O)O)NC(=O)[C@H](CO)NC(=O)[C@H](CCCNC(=N)N)NC(=O)[C@H](C)NC(=O)[C@H](CS)NC(=O)CNC(=O)[C@@H](NC(=O)[C@@H]1CCCN1C(=O)[C@H](CC(N)=O)NC(=O)[C@@H](NC(=O)CCCC[C@@H]1SC[C@@H]2NC(=O)N[C@@H]21)C(C)C)[C@@H](C)O)C(=O)N[C@@H](CO)C(N)=O
- Kd [1]: 170 nM
- koff [1]: 0.0097 s⁻¹
- kon [1]: 63000 M⁻¹ s⁻¹
- Kd [2]: 190 nM
- koff [2]: 0.012 s⁻¹
- kon [2]: 66000 M⁻¹ s⁻¹
